B1: Npm tail domain (residues 119–195) (domain or fragment)
chain: MEEDYSWAEEEDEGEEEEEEEEDPESPPKAVKRPAATKKAGQAKKKKLDKEDESSEEDSPTKKGKGAGRGRKPAAKK
B2: Npm tail peptide (residues 122–131) (peptide)
chain: DYSWAEEEDE

Assays:
[1] = biological target: H3/H4 (Xenopus, UniProt P84233 21-136; P62799 17-103)
[2] = biological target: H2A/H2B dimer (Xenopus, UniProt P06897 2-123; P02281 1-126)

Row | Binder | Kd [1] | Kd [2]
1 | B1 | 1110 nM | 171 nM
2 | B2 | – | 9360 nM
